Laboratory results as given in US20230348852A1, “METHODS AND COMPOSITIONS FOR OCULAR CELL THERAPY” (NOVARTIS AG, priority 2020, published 2023).

Key:
B2M = experiment: Targeted PCR and NGS (amplicon sequencing) of on-target and off-target sites in genome-edited LSCs; format: cell-based, human; conditions: for Number of sites positive for off-target activity in LSCs: of the potential off-target loci sequenced; for B2M purified rhAmpSeq indel: purified (B2M negative) LSC populations
Method: Potential CRISPR/Cas9-mediated cutting sites identified above were evaluated using targeted PCR and NGS in genome-edited expanded LSCs.
Selected sgRNAs (SEQ ID NO: 120, 162, 166, 167, 171, and 175) were further analyzed by amplicon sequencing in edited and non-edited cells. Primers flanking the potential off-target sites for each guide were used to detect indels by NGS analysis in edited LSCs and non-edited peripheral blood mononuclear cells. Sites that had either (1) a difference in mean indel percentage between edited and unedited cells greater than 0.5%; or (2) a p value less than 0.05 between edited and unedited indel were further analyzed. NGS sequence reads for such sites were assessed for characteristic indel patterns near the putative Cas9 cut site. Based on the results, we could assess the specificity of gRNAs and their suitability for therapeutic applications.

human B2M = experiment: CRISPR/Cas9-mediated deletion of B2M in HEK293 (lipofection, FACS); format: cell-based; conditions: lipofection of tracrRNA, gRNA and Cas9 mRNA; FACS after 72 h
Method: One day before transfection, 500′000 HEK293cells (ATCC, Manassas, VA) were plated in a 35 mm dish and grown in DMEM/10%FBS. The following day, cells were transfected with a mixture of tracrRNA-gRNA-Cas9 mRNA. A stock of 10 micromolar was prepared resuspending 20 nanomoles of gRNA and 20 nanomoles tracrRNA in 2000 microlitre 10 millimolar Tris buffer pH7.4 each.
The mixture was added drop wise to the culture dish in 2.5 ml DMEM/10%FBS medium. The transfection reagent alone represented the transfection negative control.
After 6 h incubation in 5% CO2 at 37° C. medium was replaced with fresh DMEM/10%FBS medium. After 72 h in a 5% CO2 incubator cells were prepared for FACS analysis. FACS analysis: HEK293 cells were treated with Accutase (ThermoFisher, Cat # A1110501) for 20 minutes in 5% CO2 at 37° C. The reaction was stopped by using cell culture medium containing 10% Serum and transferred to a falcon tube for a centrifugation step (1000 rpm, 5 minutes). After aspirating the medium cells were resuspended in 200 microlitre FACS buffer (PBS/10%FBS).
To analyze the expression of B2M and HLA-ABC, 5 microlitre APC mouse anti-human β2-microglobulin antibody (Biolegend, Cat #316312) and 20 microlitre PE mouse anti-human HLA-ABC antibody (BD Bioscience, Cat # 560168) were added to the cell suspension and incubated for 30 minutes on ice. Cells were washed 3 times after antibody labelling with FACS buffer and resuspended in 500 microlitre in FACS buffer.
Each sample was transferred to one well of a round bottom 96 well plate and analyzed on a BD LSRFortessa X-20 device. FACS data were analyzed using BD FACSDiva software.

[1] = tested on: beta-2-microglobulin gene; experiment: CRISPR/Cas9-mediated deletion of B2M in LSCs (nucleofection, FACS); format: cell-based, human; conditions: nucleofection with Cas9 protein SEQ ID NO: 107, LSCs at passage 0, FACS
Method: LSCs at passage 0 were trypsinized with TryLE®Express Enzym (ThermoFisher, Cat #12605010) for 15 min in 5%CO2 at 37° C. After scraping the cells, the reaction was stopped by using cell culture medium containing 10% Serum and transferred to a falcon tube. After counting cells using Vi-cell 200′000 cells were prepared per reaction by transferring 200′000 cells in single tubes and centrifuged at 1000 rpm for 5 min.
The supernatant was aspirated using manually pipetting to avoid cell loss and the cells were resuspended in the Stem cell nucleofector solution II (Lonza, Cat #VPH-5022). Resuspend cells in nucleofector solution immediately before adding the Cas9 protein:sgRNA mixture. A stock of 100 µM (3.23 µg/µl) was prepared resuspending 5.1 nanomoles of single-guideRNA (sgRNA) in 51 µl 10 mM Tris buffer pH7.4. […]
In order to prevent cells sticking to the wall, collection tubes were filled with FACS buffer for 30 minutes before the sort and aspirated before adding the collection medium. […] FACS data were analyzed using BD FACSDiva software and FlowJo software.

B1: 1-CR004366: gRNA targeting human B2M; targeting domain SEQ ID NO: 108; sgRNA SEQ ID NO: 120; from Dharmacon (nucleic acid)
guide: GAGUAGCGCGAGCACAGCUAGUUUUAGAGCUAGAAAUAGCAAGUUAAAAUAAGGCUAGUCCGUUAUCAACUUGAAAAAGUGGCACCGAGUCGGUGCUUUU
modifications: listed as RNA, chemistry not given here
notes: gRNA targeting human B2M; from Dharmacon
B2M; amplicon sequencing of potential off-target loci
  validated indels for off-target activity in LSCs: zero
B2M
  Number of sites positive for off-target activity in LSCs: 0 of 64
  B2M purified rhAmpSeq indel: 99.60±0.44%
B2M; listed as SEQ ID NO: 120
  Number of sites positive for off-target activity in LSCs: no predicted sites tested positive for off-target activity
  B2M purified rhAmpSeq indel: ~ 99%
Human B2M
  B2M knockout efficiency in HEK293: 70%
[1]
  LSCs not expressing B2M and HLA I (HLA A, B and C) on cell surface: about 70%
